In the test the target is ULBP1 (UniProt Q9BZM6).
Sequence of UniProt Q9BZM6 (Q9BZM6 26-216): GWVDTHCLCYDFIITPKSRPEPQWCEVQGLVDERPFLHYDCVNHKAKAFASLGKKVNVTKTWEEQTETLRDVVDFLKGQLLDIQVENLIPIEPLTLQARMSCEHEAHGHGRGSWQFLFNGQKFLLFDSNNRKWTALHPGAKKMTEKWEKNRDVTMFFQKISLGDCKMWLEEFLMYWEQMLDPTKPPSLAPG

Sequence of NKG2D (P26718 whole entry): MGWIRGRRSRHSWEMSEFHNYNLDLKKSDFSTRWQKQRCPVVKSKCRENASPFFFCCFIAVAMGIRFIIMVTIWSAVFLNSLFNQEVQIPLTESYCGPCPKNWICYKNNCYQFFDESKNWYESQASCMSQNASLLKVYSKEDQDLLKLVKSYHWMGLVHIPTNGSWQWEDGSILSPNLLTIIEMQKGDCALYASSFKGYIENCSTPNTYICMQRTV

Regarding “NKG2D (from UniProt P26718 1-216) (receptor)”, the specific killing via NKG2D: killing of C1R/ULBP1 (37%) minus killing of C1R/Mock (20%) by primary bulk NK culture NK-A.K., effector-to-target ratio 5:1, PI co-staining of CFSE-labelled target cells is 17%.

The record behind these values is publication PMC2680030.
